The values that follow come from patent US20140087401.

The data set relates to purified spectrin.

As to calpain (added in the in-tube reaction), the “spectrin cleavage, gel stained with Coomassie's blue” value is given as “Purified spectrins undergo calpain-mediated dynamic cleavage in a test tube due to ambient PAV impact”.
